In patent US20210388074A1 (LUDWIG INSTITUTE FOR CANCER RESEARCH, published 2021):

Legend:
[1] = molecular target: T1, human recombinant TGF-b3 (Shenandoah Biotechnology, cat. #100-109) (human, UniProt P10600 301-412); experiment: ELISA; scFv culture on plate-coated TGF-b3
T1 construct: Bought recombinant protein, coated on ELISA plates; also called TGF-β3; hTGF-ß3
T1 sequence: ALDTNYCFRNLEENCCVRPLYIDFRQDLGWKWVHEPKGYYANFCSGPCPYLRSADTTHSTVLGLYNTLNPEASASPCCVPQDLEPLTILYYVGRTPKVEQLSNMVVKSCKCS
Method: (§1) To perform the ELISA a 96-well maxisorp Nunc-immunoplate (Thermo Scientific, cat. #2022-10) was coated with 50 μl/well of human recombinant TGF-b1 (Acrobiosystems, cat. #TG1-H4212), TGF-b2 (R&D Systems, cat. #302-B2-010) and human recombinant TGF-b3 (Shenandoah Biotechnology, cat. #100-109) at 500 ng/ml in PBS at 4° C. overnight. Wells were blocked by the direct addition of 230 μl of block solution (5% skimmed milk/0.05% Tween20 in PBS) without first washing the plate. Blocking was carried out for 45 min with gentle agitation. Concurrently, the bacterial cultures containing the expressed scFv and the rescued phage were blocked by the direct addition of 120 μl of block solution. The blocked maxisorp plate was washed 3× with PBST (PBS+0.1% Tween20) before applying 150 μl of blocked scFv or phage culture to the wells. Incubation was performed for 1 h at room temperature with gentle agitation before washing of the wells with 4×PBST.
(§2) For the scFv ELISA, 100 μl of primary mouse 9E10 anti-cmyc Ab diluted 1/1000 in PBS+1% BSA was added to wells, followed by a 1 h incubation at room temperature with gentle agitation. […] The ELISA was developed by the addition of 100 μl/well of TMB substrate (ThermoFischer Scientific, cat. #34021), stabilized with 50 μl/well of stop solution (2N sulfuric acid) and absorbance signals read at 450 nm and 620 nm.

[2] = molecular target: T1, human recombinant TGF-b3 (Shenandoah …); experiment: TGFβ specificity ELISA; HEK293-6E supernatant
[3] = molecular target: T2, TGFb3 (species not stated) (Homo sapiens (Human), UniProt P10600 301-412); experiment: SPR (Biacore), single-cycle kinetics; TGFb3 immobilized directly, Fab as soluble analyte
T2 construct: also called TGFβ3; TGF-β3
T2 sequence: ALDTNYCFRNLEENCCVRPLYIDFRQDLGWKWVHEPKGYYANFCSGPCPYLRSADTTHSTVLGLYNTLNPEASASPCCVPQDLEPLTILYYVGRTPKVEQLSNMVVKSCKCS
Method: TGFb3 immobilized directly; Fab as soluble analyte (0 2.5 nM). Single cycle kinetics were conducted as follows Contact: 360 s; Dissociation: 500 s; Flow rate: 30 μl/min.
Binding affinities of the Fabs were in the pM range.

[4] = molecular target: T3, TGFb3 (species not stated) (UniProt P10600 301-412); experiment: Biacore single-cycle kinetics
T3 chain: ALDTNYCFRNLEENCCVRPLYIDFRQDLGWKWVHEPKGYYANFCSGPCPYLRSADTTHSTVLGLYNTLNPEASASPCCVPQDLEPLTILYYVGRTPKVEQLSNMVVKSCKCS

[5] = molecular target: T1, human recombinant TGF-b3 (Shenandoah …); experiment: competition ELISA on hTGF-ß3-coated plate; competitor biotinylated murine 1901
Method: Nunc Maxisorb ELISA plates were coated overnight at 8° C. with 0.5 μg/ml hTGF-ß1 (Peter Sun, NIH) or hTGF-ß3 (Shenandoah Biotech) at 0.5 μg/ml in 40 mM glycine buffer pH 9. Plates were washed and blocked with 10% FCS for 1 h at 37° C. […] After incubation for 2h at 37° C. plates were washed, Avidine-HRP added and incubated for 1 h at 37° C. Plates washed again, TMB substrate was added and bound biotinylated antibody was quantitated by measuring color development in an ELISA reader at a wave length of 450 nm.
The potency of the humanized LCR1901 IgG4 antibody variants to compete with the parental murine antibody for binding to TGFb3 was assessed by ELISA.

[6] = molecular target: T1, human recombinant TGF-b3 (Shenandoah …); experiment: ELISA; scFv culture on plate-coated TGF-b3, anti-cmyc detection
Method: as §1, §2

[7] = molecular target: T1, human recombinant TGF-b3 (Shenandoah …); experiment: phage ELISA on plate-coated TGF-b3, anti-fd bacteriophage detection
Method: as §1
For the phage ELISA, 100 μl of primary rabbit anti-fd bacteriophage Ab (Sigma, cat. #B7786) diluted 1/1000 in PBS+1% BSA was added to wells followed by a 1 h incubation at room temperature with gentle agitation. The plate was washed 4× with PBST before the addition of 100 μl of secondary mouse anti-rabbit IgG (Υ-chain specific) HRP conjugate (Sigma, cat. #A1949) diluted 1/15000 in PBS+1% BSA. […]

B1: LCR1901_GLv1_scFv (murine 1901 CDRs grafted onto IGKV1-39*01/IGHV1-69*08, scFv) (scFv)
scFv: DIQMTQSPSSLSASVGDRVTITCKASQSVINAVAWYQQKPGKAPKLLIYYASNRYTGVPSRFSGSGSGTDFTLTISSLQPEDFATYYCQQDYSSPYTFGGGTKLEIKRTVAARQEGGSGEGGSGESNAAAQVQLVQSGAEVKKPGSSVKVSCKASGYAFSSSWIHWVRQAPGQGLEWIGRIYPGDGDTNYTGKFKGRVTITADKSTSTAYMELSSLRSEDTAVYYCARRMITTQAAMDYWGQGTSVTVSSASTKAS
notes: Expressed in E. coli from pCHV101
- binding result [1]: binds

B2: 1901_Chimeric (mouse 1901 variable domains fused to human IgG1 Fc) (antibody, V domains shown)
VH: QVLLQQSGPELVKPGASVKISCKASGYAFSSSWIHWVKQRPGKGLEWIGRIYPGDGDTNYTGKFKGKATLTADKSSSTAYMQLSSLTSEDSAVYFCARRMITTQAAMDYWGQGTSVTVSS
VL: SFVMTQTPKFLLVSAGDRVTITCKASQSVINAVAWYQQKPGQSPKLLIYYASNRYTGVPDRFTGNGYGTDFTFTISTVQAEDLAVYFCQQDYSSPYTFGGGTKLEIK
notes: Tested as HEK293-6E supernatant; also called murine chimeras
- binding result [2]: binds

B3: 1901-1D Fab (LCR1901_VH_1G10m_03(K)-LCR1901_VK_GLv1_03(F) expressed as Fab) (Fab, V domains shown)
VH: QVQLVQSGAEVKKPGSSVKVSCKASGYTFSSSWIHWVKQRPGKGLEWIGRIYPGDGDTDYSEKFQGRVTITADKSTSTAYMELSSLRSEDTAVYYCARRMITTQAALDYWGQGTLVTVSS
VL: DIQMTQSPSSLSASVGDRVTITCKASQSVINAVAWYQQKPGQSPKLLIYYASNRYTGVPDRFSGSGYGTDFTFTISSLQAEDVAVYYCQQDYSSPYTFGGGTKVEIK
- binding result [3]: binds
- Kd [4]: 0.364 nM

B4: 1901-1A, LCR1901_VH_1G10m-LCR1901_VK_GLv1_05(H), human IgG4 (S228P) (antibody, V domains shown)
VH: QVQLVQSGAEVKKPGSSVKVSCKASGYTFSSSWIHWVRQAPGQGLEWIGRIYPGDGDTDYSEKFQGRVTITADKSTSTAYMELSSLRSEDTAVYYCARRMITTQAALDYWGQGTLVTVSS
VL: DIQMTQSPSSLSASVGDRVTITCKASQSVINAVAWYQQKPGKAPKLLIYYASNRYTGVPDRFSGSGYGTDFTFTISSLQAEDVAVYYCQQDYSSPYTFGGGTKVEIKR
notes: the latter are used; also called LCR1901-1A
- binding result [5]: binds

B5: 1901_Glv1 (graft) human IgG1 (antibody, V domains shown)
VH: QVQLVQSGAEVKKPGSSVKVSCKASGYAFSSSWIHWVRQAPGQGLEWIGRIYPGDGDTNYTGKFKGRVTITADKSTSTAYMELSSLRSEDTAVYYCARRMITTQAAMDYWGQGTSVTVSS
VL: DIQMTQSPSSLSASVGDRVTITCKASQSVINAVAWYQQKPGKAPKLLIYYASNRYTGVPSRFSGSGSGTDFTLTISSLQPEDFATYYCQQDYSSPYTFGGGTKVEIK
notes: Tested as HEK293-6E supernatant; also called LCR1901_GLv1 mAb (IgG1)
- binding result [2]: binds

B6: 1901-1B Fab (LCR1901_VH_1G10m_03(K)-LCR1901_VK_GLv1_05(H) expressed as Fab) (Fab, V domains shown)
VH: QVQLVQSGAEVKKPGSSVKVSCKASGYTFSSSWIHWVKQRPGKGLEWIGRIYPGDGDTDYSEKFQGRVTITADKSTSTAYMELSSLRSEDTAVYYCARRMITTQAALDYWGQGTLVTVSS
VL: DIQMTQSPSSLSASVGDRVTITCKASQSVINAVAWYQQKPGKAPKLLIYYASNRYTGVPDRFSGSGYGTDFTFTISSLQAEDVAVYYCQQDYSSPYTFGGGTKVEIK
- Kd [4]: 0.285 nM

B7: 1901-1C Fab (LCR1901_VH_1G10m-LCR1901_VK_GLv1_03(F) expressed as Fab) (Fab, V domains shown)
VH: QVQLVQSGAEVKKPGSSVKVSCKASGYTFSSSWIHWVRQAPGQGLEWIGRIYPGDGDTDYSEKFQGRVTITADKSTSTAYMELSSLRSEDTAVYYCARRMITTQAALDYWGQGTLVTVSS
VL: DIQMTQSPSSLSASVGDRVTITCKASQSVINAVAWYQQKPGQSPKLLIYYASNRYTGVPDRFSGSGYGTDFTFTISSLQAEDVAVYYCQQDYSSPYTFGGGTKVEIK
- binding result [3]: binds
- Kd [4]: 0.3 nM

B8: 1901-1A Fab (LCR1901_VH_1G10m-LCR1901_VK_GLv1_05(H) expressed as Fab) (Fab, V domains shown)
VH: QVQLVQSGAEVKKPGSSVKVSCKASGYTFSSSWIHWVRQAPGQGLEWIGRIYPGDGDTDYSEKFQGRVTITADKSTSTAYMELSSLRSEDTAVYYCARRMITTQAALDYWGQGTLVTVSS
VL: DIQMTQSPSSLSASVGDRVTITCKASQSVINAVAWYQQKPGKAPKLLIYYASNRYTGVPDRFSGSGYGTDFTFTISSLQAEDVAVYYCQQDYSSPYTFGGGTKVEIK
- binding result [3]: binds

B9: 1901-1D, LCR1901_VH_1G10m_03(K)-LCR1901_VK_GLv1_03(F), human IgG4 (S228P) (antibody, V domains shown)
VH: QVQLVQSGAEVKKPGSSVKVSCKASGYTFSSSWIHWVKQRPGKGLEWIGRIYPGDGDTDYSEKFQGRVTITADKSTSTAYMELSSLRSEDTAVYYCARRMITTQAALDYWGQGTLVTVSS
VL: DIQMTQSPSSLSASVGDRVTITCKASQSVINAVAWYQQKPGQSPKLLIYYASNRYTGVPDRFSGSGYGTDFTFTISSLQAEDVAVYYCQQDYSSPYTFGGGTKVEIKR
notes: the latter are used; also called LCR1901-1D
- binding result [5]: binds

B10: 1901-1C, LCR1901_VH_1G10m-LCR1901_VK_GLv1_03(F), human IgG4 (S228P) (antibody, V domains shown)
VH: QVQLVQSGAEVKKPGSSVKVSCKASGYTFSSSWIHWVRQAPGQGLEWIGRIYPGDGDTDYSEKFQGRVTITADKSTSTAYMELSSLRSEDTAVYYCARRMITTQAALDYWGQGTLVTVSS
VL: DIQMTQSPSSLSASVGDRVTITCKASQSVINAVAWYQQKPGQSPKLLIYYASNRYTGVPDRFSGSGYGTDFTFTISSLQAEDVAVYYCQQDYSSPYTFGGGTKVEIKR
notes: also called LCR1901-1C
- binding result [5]: binds

B11: LCR1901_scFv (murine 1901 VH and VL reformatted as soluble scFv) (scFv)
scFv: SFVMTQTPKFLLVSAGDRVTITCKASQSVINAVAWYQQKPGQSPKLLIYYASNRYTGVPDRFTGNGYGTDFTFTISTVQAEDLAVYFCQQDYSSPYTFGGGTKLEIKRTVAARQEGGSGEGGSGESNAAAQVLLQQSGPELVKPGASVKISCKASGYAFSSSWIHWVKQRPGKGLEWIGRIYPGDGDTNYTGKFKGKATLTADKSSSTAYMQLSSLTSEDSAVYFCARRMITTQAAMDYWGQGTSVTVSSASTKAS
notes: Expressed in E. coli from pCHV101 and tested as culture; also called LCR1901_soluble scFv; parental soluble scFv
- binding result [6]: binds

B12: LCR1901_Phage (murine 1901 scFv fused to the pIII coat protein of filamentous bacteriophage) (scFv)
scFv: SFVMTQTPKFLLVSAGDRVTITCKASQSVINAVAWYQQKPGQSPKLLIYYASNRYTGVPDRFTGNGYGTDFTFTISTVQAEDLAVYFCQQDYSSPYTFGGGTKLEIKRTVAARQEGGSGEGGSGESNAAAQVLLQQSGPELVKPGASVKISCKASGYAFSSSWIHWVKQRPGKGLEWIGRIYPGDGDTNYTGKFKGKATLTADKSSSTAYMQLSSLTSEDSAVYFCARRMITTQAAMDYWGQGTSVTVSSASTKAS
notes: not shown: pIII coat protein of filamentous bacteriophage from the pCHV101 phagemid
- binding result [7]: binds
